{
  "source": "patent US20220259593A1",
  "about": "“CONTROL OF MAMMALIAN GENE DOSAGE USING CRISPR” (The Regents of the University of California, priority 2019, published 2022)",
  "tested_on": "K562 CRISPRi cells",
  "experiment": "Constant region variant library pooled growth screen, K562",
  "type": "cell-based, human",
  "conditions": "sgRNA constant region variants",
  "outline": "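Relative activity expresses each targeting sequence:constant region pair's phenotype over that of the unmodified constant region. Pooled growth screen ran in K562 CRISPRi cells in duplicate spinner-flask replicates, with puromycin selection and 4–8 days' growth at >2000× coverage; library paired variants with 36 targeting sequences.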",
  "key": {"[1]": {"conditions": "relative to the original, un-modified constant region cr995 (= 1)"}, "[2]": {"conditions": "activity relative to the original, un-modified constant region cr995"}},
  "data": [
    {"molecule": "cr672 (nucleic acid, listed as DNA, chemistry not fully specified) guide: GTTTAAGAGCTAAGCTGGAAACAGCATAGCAAGTTTAAATAAGGCTAGTCCGTTATCAACTTGAAAAAGTGGCATCGAGTCGGTGCT", "values": [
      {"measurement": "Mean relative activity", "setting": "[1]", "result": 1.005}
    ]},
    {"molecule": "cr446 (nucleic acid, listed as DNA, chemistry not fully specified) guide: GTTTAAGAGCTAAGCTGGAAACAGCATAGCAAGTTTAAATAAGGTTAATCCGTTATCATCTTGAAAAAGAGGGACCGAGTCGGTCCT", "values": [
      {"measurement": "Mean relative activity", "setting": "[1]", "result": 0.9926}
    ]},
    {"molecule": "cr666 (nucleic acid, listed as DNA, chemistry not fully specified) guide: GTTTAAGAGCTAAGCTGGAAACAGCATAGCAAGTTTAAATAAGGTTAATCCGTTATCAACTTGAAAAAGTGGAGCCGAGTCGGCTCT", "values": [
      {"measurement": "Mean relative activity", "setting": "[1]", "result": 0.996}
    ]},
    {"molecule": "cr923 (nucleic acid, listed as DNA, chemistry not fully specified) guide: GTTTAAGAGCTAAGCTGGAAACAGCATAGCAAGTTTAAATAAGGCTAGTCCGTTATCAACTTGAAAAAGTGACCCCGAGTCGGGGTT", "values": [
      {"measurement": "Mean relative activity", "setting": "[1]", "result": 1.002}
    ]},
    {"molecule": "cr956 (nucleic acid, listed as DNA, chemistry not fully specified) guide: GTTTAAGAGCTAAGCTGGAAACAGCATAGCAAGTTTAAATAAGGCAAGTCCGTTATCAACTTGAAAAAGTGGCACCGAGTCGGTGCT", "values": [
      {"measurement": "Mean relative activity", "setting": "[1]", "result": 0.9983}
    ]},
    {"molecule": "cr392 (nucleic acid, listed as DNA, chemistry not fully specified) guide: GTTTAAGAGCTAAGCTGGAAACAGCATAGCATGTTTAAATAAGGCTAGTCCGTTATCAACTTGATAAAGTGGCACCGAGTCGGTGCT", "values": [
      {"measurement": "Mean relative activity", "setting": "[1]", "result": 0.9999}
    ]},
    {"molecule": "cr195 (nucleic acid, listed as DNA, chemistry not fully specified) guide: GTTTAAGAGCTAAGCTGGAAACAGCATAGCAAGTTTAAATAAGGCTAGTCCGTTATCAACTTGCAAAAGTGGCACCGATTCGGTGCT", "values": [
      {"measurement": "Mean relative activity", "setting": "[1]", "result": 0.9986}
    ]},
    {"molecule": "cr901 (nucleic acid, listed as DNA, chemistry not fully specified) guide: GTTTAAGAGCTAAGCTGGAAACAGCATAGCAAGTTTAAATAAGGCTAGTCCGTTATCAACTTGAAGAAGTGGCACCGAGTCGGTGCT", "values": [
      {"measurement": "Mean relative activity", "setting": "[1]", "result": 1.003}
    ]},
    {"molecule": "cr155 (nucleic acid, listed as DNA, chemistry not fully specified) guide: GTTTAAGAGCTAAGCTGGAAACAGCATAGCAAGTTTAAATAAGGCTAGTCCGTTATCAATTGGAAACAATGGCATCGAGTCGATGCT", "values": [
      {"measurement": "Mean relative activity", "setting": "[1]", "result": 1.003}
    ]},
    {"molecule": "cr156 (nucleic acid, listed as DNA, chemistry not fully specified) guide: GTTTAAGAGCTAAGCTGGAAACAGCATAGCAAGTTTAAATAAGGCTAGTCCGTTATCAACTAGAAATAGTGGCACCGAGTCGGTGCT", "values": [
      {"measurement": "Mean relative activity", "setting": "[2]", "result": 1.072}
    ]},
    {"molecule": "cr774 (nucleic acid, listed as DNA, chemistry not fully specified) guide: GTTTAAGAGCTAAGCTGGACACAGCATAGCAAGTTTAAATAAGGCTAGTCCGTTATCAACTTGAAAAAGTGGCACCGAGTCGGTGCT", "values": [
      {"measurement": "Mean relative activity", "setting": "[1]", "result": 0.9968}
    ]},
    {"molecule": "cr713 (nucleic acid, listed as DNA, chemistry not fully specified) guide: GTTTAAGAGCTAAGCTGGAAACAGCATAGCAAGTTTAAATAAGGCTAGTCCGTTATCAACTAGAGATAGTGGCACCGAGTCGGTGCT", "values": [
      {"measurement": "Mean relative activity", "setting": "[1]", "result": 0.9979}
    ]},
    {"molecule": "cr363 (nucleic acid, listed as DNA, chemistry not fully specified) guide: GTTTAAGAGCTAAGCTGGAAACAGCATAGCAAGTTTAAATAAGGCTAGTCCGTTATCAATTCGAAAGAATGGCACCGAGTCGGTGCT", "values": [
      {"measurement": "Mean relative activity", "setting": "[2]", "result": 1.07}
    ]},
    {"molecule": "cr172 (nucleic acid, listed as DNA, chemistry not fully specified) guide: GTTTAAGAGCTAAGCTGGAAACAGCATAGCAAGTTTAAATAAGGCTTGTCCGTTATCAACTTGTAAAAGTGGCACCGAGTCGGTGCT", "values": [
      {"measurement": "Mean relative activity", "setting": "[1]", "result": 0.9996}
    ]},
    {"molecule": "cr656 (nucleic acid, listed as DNA, chemistry not fully specified) guide: GTTTAAGAGCTAAGCTGGAAACAGCATAGCAAGTTTAAATAAGGCTAGTCCGTTATCAACTTGAAAAAGTGGCCCCGAGTCGGGGCT", "values": [
      {"measurement": "Mean relative activity", "setting": "[1]", "result": 1.004}
    ]},
    {"molecule": "cr893 (nucleic acid, listed as DNA, chemistry not fully specified) guide: GTTTAAGAGCTAAGCTGGAAACAGCATAGCAAGTTTAAATAAGGCTAGTCCGTTATCAACTTGAAAAAGTGGCACCGAGTCGGTGTT", "values": [
      {"measurement": "Mean relative activity", "setting": "[1]", "result": 0.9932}
    ]},
    {"molecule": "cr995: original, un-modified sgRNA constant region sequence (nucleic acid, listed as DNA, chemistry not fully specified) guide: GTTTAAGAGCTAAGCTGGAAACAGCATAGCAAGTTTAAATAAGGCTAGTCCGTTATCAACTTGAAAAAGTGGCACCGAGTCGGTGCT", "values": [
      {"measurement": "Mean relative activity", "setting": "[1]", "result": 1}
    ]},
    {"molecule": "cr722 (nucleic acid, listed as DNA, chemistry not fully specified) guide: GTTTAAGAGCTAAGCTGGAAACAGCATAGCAAGTTTAAATAAGGCTAGTCCGTTATCAACTTGAGAAAGTGGCCCCGAGTCGGGGCT", "values": [
      {"measurement": "Mean relative activity", "setting": "[1]", "result": 1.001}
    ]},
    {"molecule": "cr489 (nucleic acid, listed as DNA, chemistry not fully specified) guide: GTTTAAGAGCTAAGCTGGAAACAGCATAGCAAGTTTAAATAAGGCTAGTCCGTTATCAACTTGAGAAAGTGGGACCGAGTCGGTCCT", "values": [
      {"measurement": "Mean relative activity", "setting": "[1]", "result": 0.9991}
    ]},
    {"molecule": "cr269 (nucleic acid, listed as DNA, chemistry not fully specified) guide: GTTTAAGAGCTAAGCTGGAAACAGCATAGCAAGTTTAAATAAGGCTAGTCCGTTATCAACTTGAAAAAGTGCAACCGAGTCGGTTGT", "values": [
      {"measurement": "Mean relative activity", "setting": "[1]", "result": 0.9979}
    ]},
    {"molecule": "cr851 (nucleic acid, listed as DNA, chemistry not fully specified) guide: GTTTAAGAGCTAAGCTGGAAACAGCATAGCAAGTTTAAATAAGGCTAGTCCGTTATCAGCTTGAAAAAGCGGCACCAAGTTGGTGCT", "values": [
      {"measurement": "Mean relative activity", "setting": "[1]", "result": 1.002}
    ]},
    {"molecule": "cr947 (nucleic acid, listed as DNA, chemistry not fully specified) guide: GTTTAAGAGCTAAGCTGGGAACAGCATAGCAAGTTTAAATAAGGCTAGTCCGTTATCAACTTGAAAAAGTGGCACCGAGTCGGTGCT", "values": [
      {"measurement": "Mean relative activity", "setting": "[1]", "result": 0.9997}
    ]},
    {"molecule": "cr698 (nucleic acid, listed as DNA, chemistry not fully specified) guide: GTTTAAGAGCTAAGCTGGAAACAGCATAACAAGTTTAAATAAGGCTAGTCCGTAATCAACTTGTAAAAGTGGCACCGAGTCGGTGCT", "values": [
      {"measurement": "Mean relative activity", "setting": "[1]", "result": 0.9956}
    ]},
    {"molecule": "cr128 (nucleic acid, listed as DNA, chemistry not fully specified) guide: GTTTAAGAGCTAAGCTGGAAACAGCATAGCAAGTTTAAATAAGGCTAGTCCGTTATCAGCTTGAAAAAGCGGCACAGAGTCTGTGCT", "values": [
      {"measurement": "Mean relative activity", "setting": "[1]", "result": 1.002}
    ]},
    {"molecule": "cr152 (nucleic acid, listed as DNA, chemistry not fully specified) guide: GTTTAAGAGCTAAGCTGGAAACAGCATAGCAAGTTTAAATAAGGCTAGTCCGTTATCAACTTGAAAAAGTGAAACCGAGTCGGTTTT", "values": [
      {"measurement": "Mean relative activity", "setting": "[1]", "result": 0.9971}
    ]},
    {"molecule": "cr789 (nucleic acid, listed as DNA, chemistry not fully specified) guide: GTTTAAGAGCTAAGCTGGAAACAGCATAGCAAGTTTAAATAAGGCTAGTCCGTTATCAACTTGAAAAAGTGCCACCGAGTCGGTGGT", "values": [
      {"measurement": "Mean relative activity", "setting": "[1]", "result": 0.9955}
    ]},
    {"molecule": "cr932 (nucleic acid, listed as DNA, chemistry not fully specified) guide: GTTTAAGAGCTAAGCTGGAAACAGCATAGTAAGTTTAAATAAGGCTAGTCCGTTATCAACTTGAAAAAGTGGCACCGAGTCGGTGCT", "values": [
      {"measurement": "Mean relative activity", "setting": "[1]", "result": 0.9947}
    ]},
    {"molecule": "cr393 (nucleic acid, listed as DNA, chemistry not fully specified) guide: GTTTAAGAGCTAAGCTGGAAACAGCATAGCAAGTTTAAATAAGGCTAGTCCGTTATCAACTTGACAAAGTGGCACCGAATCGGTGCT", "values": [
      {"measurement": "Mean relative activity", "setting": "[1]", "result": 1.004}
    ]},
    {"molecule": "cr945 (nucleic acid, listed as DNA, chemistry not fully specified) guide: GTTTAAGAGCTAAGCTGGAAACAGCATAGCAAGTTTAAATAAGGCTAGTCCGTTATCAACTTGAAGAAGTGGCACCGATTCGGTGCT", "values": [
      {"measurement": "Mean relative activity", "setting": "[1]", "result": 1.002}
    ]},
    {"molecule": "cr968 (nucleic acid, listed as DNA, chemistry not fully specified) guide: GTTTAAGAGCTAAGCTGGAAACAGCATAGCAAGTTTAAATAAGGCTAGTCCGTTATCAACTTGAAAAAGTGGAACCGAGTCGGTTCT", "values": [
      {"measurement": "Mean relative activity", "setting": "[1]", "result": 1.004}
    ]}
  ]
}
